{"source": "paper PMC9898101", "key": {"MBP-ERS M487V (human)": {"system": "MBP-ERS M487V (human)", "experiment": "EMSA", "details": "1 mM Mg2+; 5 ug/mL heparin (unit prefix not given); none (in vitro transcript); 25 mM Tris-HCl pH 7.5, 50 mM NaCl, 1 mM MgCl2, 1 mM DTT, 5 ug/mL heparin (prefix not given), 10 nM 32P-tRNA, room temperature 30 min; native 4-16% gel on …"}, "MBP-ERS I212T (human)": {"system": "MBP-ERS I212T (human)", "experiment": "EMSA", "details": "1 mM Mg2+; 5 ug/mL heparin (unit prefix not given); none (in vitro transcript); 25 mM Tris-HCl pH 7.5, 50 mM NaCl, 1 mM MgCl2, 1 mM DTT, 5 ug/mL heparin (prefix not given), 10 nM 32P-tRNA, room temperature 30 min; native 4-16% gel on …"}}, "note": "pKd: −log10 of the molar value."}
{"substance": "human tRNAGlu(TTC)", "values": [{"measurement": "pKd", "setting": "MBP-ERS M487V (human)", "result": 5.92}, {"measurement": "pKd", "setting": "MBP-ERS I212T (human)", "result": 5.70}]}
